Source: PMC3296735
Each block holds one molecule with its values, some of them ahead of it.

Experiments:
[1] = biological target: T1, human GIPR with C-terminal V5 epitope (GIPR-V5) (human) (UniProt P48546)
T1 sequence: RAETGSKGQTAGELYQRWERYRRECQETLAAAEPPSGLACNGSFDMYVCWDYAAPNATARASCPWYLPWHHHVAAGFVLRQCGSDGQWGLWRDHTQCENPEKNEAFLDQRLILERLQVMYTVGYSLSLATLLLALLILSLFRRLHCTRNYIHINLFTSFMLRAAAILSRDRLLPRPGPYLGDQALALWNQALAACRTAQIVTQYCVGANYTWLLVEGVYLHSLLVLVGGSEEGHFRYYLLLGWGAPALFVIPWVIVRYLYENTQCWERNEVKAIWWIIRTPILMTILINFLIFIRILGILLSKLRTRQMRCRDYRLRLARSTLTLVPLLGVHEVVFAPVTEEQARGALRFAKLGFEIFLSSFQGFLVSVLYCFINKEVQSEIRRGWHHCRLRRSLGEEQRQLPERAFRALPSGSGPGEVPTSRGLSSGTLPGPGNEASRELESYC

N62Q-GIPR-V5 (human) = biological target: T2, N62Q-GIPR-V5 (human) (UniProt P48546)
T2 sequence: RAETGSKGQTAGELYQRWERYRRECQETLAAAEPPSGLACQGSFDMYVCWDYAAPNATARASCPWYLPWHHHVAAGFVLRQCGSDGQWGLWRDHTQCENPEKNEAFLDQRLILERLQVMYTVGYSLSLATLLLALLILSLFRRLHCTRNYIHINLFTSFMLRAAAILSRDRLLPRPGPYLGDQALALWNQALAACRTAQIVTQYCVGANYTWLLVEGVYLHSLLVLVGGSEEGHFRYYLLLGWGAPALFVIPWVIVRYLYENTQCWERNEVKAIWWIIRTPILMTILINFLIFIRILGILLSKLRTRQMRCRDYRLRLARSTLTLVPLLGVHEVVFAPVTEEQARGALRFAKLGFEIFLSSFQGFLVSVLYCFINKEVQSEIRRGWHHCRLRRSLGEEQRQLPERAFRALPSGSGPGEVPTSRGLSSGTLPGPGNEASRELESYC

N77Q-GIPR-V5 (human) = biological target: T3, N77Q-GIPR-V5 (human) (UniProt P48546)
T3 sequence: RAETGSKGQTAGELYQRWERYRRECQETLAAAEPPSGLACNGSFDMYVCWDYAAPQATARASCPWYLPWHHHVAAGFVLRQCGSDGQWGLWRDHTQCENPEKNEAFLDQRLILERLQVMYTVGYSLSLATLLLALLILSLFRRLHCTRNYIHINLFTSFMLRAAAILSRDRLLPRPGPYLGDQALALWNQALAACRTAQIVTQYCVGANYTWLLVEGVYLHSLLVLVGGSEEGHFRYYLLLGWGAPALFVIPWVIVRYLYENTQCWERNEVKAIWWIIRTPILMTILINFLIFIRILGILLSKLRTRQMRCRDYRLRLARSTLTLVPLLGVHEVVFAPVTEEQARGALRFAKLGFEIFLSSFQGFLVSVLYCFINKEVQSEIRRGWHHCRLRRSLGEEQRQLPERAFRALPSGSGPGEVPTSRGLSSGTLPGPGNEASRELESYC

[2] = biological target: T1, human GIPR with C-terminal V5 epitope (GIPR-V5) (human); remark: listed apart in the source
[3] = biological target: N63,82,115Q-GLP-1R-V5 (human) (UniProt P43220)
N63Q-GLP1R-V5 (human) = N63Q-GLP1R-V5 (human) (UniProt P43220)
N115Q-GLP1R-V5 (human) = N115Q-GLP1R-V5 (human) (UniProt P43220)
N82Q-GLP1R-V5 (human) = N82Q-GLP1R-V5 (human) (UniProt P43220)
[4] = biological target: N63,82Q-GLP-1R-V5 (human) (UniProt P43220)
[5] = biological target: human GLP1R with C-terminal V5 epitope (GLP1R-V5) (human) (UniProt P43220)
[6] = biological target: human GLP1R with C-terminal V5 epitope (GLP1R-V5) (human) (UniProt P43220); remark: listed apart in the source

EC50 of GIP for cAMP production (LANCE TR-FRET) in CHO cells expressing the receptor; series of Figure 8A [1]: 0.034 nM
EC50 of GIP for cAMP production (LANCE TR-FRET, 30 min stimulation) in CHO cells expressing the receptor (N62Q-GIPR-V5 (human)): 0.1 nM
EC50 of GIP for cAMP production (LANCE TR-FRET, 30 min stimulation) in CHO cells expressing the receptor (N77Q-GIPR-V5 (human)): 3.1 nM
EC50 of GIP for cAMP production (LANCE TR-FRET, 30 min stimulation) in CHO cells expressing the receptor [2]: 0.082 nM
Molecule: GIP peptide (Glucose-dependent Insulinotropic Polypeptide) (from UniProt P09681 52-93) (ligand)

EC50 of GLP-1 for cAMP production (LANCE TR-FRET, 30 min stimulation) in CHO cells expressing the receptor [3]: 2.7 nM
EC50 of GLP-1 for cAMP production (LANCE TR-FRET, 30 min stimulation) in CHO cells expressing the receptor (N63Q-GLP1R-V5 (human)): 0.63 nM
EC50 of GLP-1 for cAMP production (LANCE TR-FRET, 30 min stimulation) in CHO cells expressing the receptor (N115Q-GLP1R-V5 (human)): 0.72 nM
EC50 of GLP-1 for cAMP production (LANCE TR-FRET, 30 min stimulation) in CHO cells expressing the receptor (N82Q-GLP1R-V5 (human)): 0.71 nM
EC50 of GLP-1 for cAMP production (LANCE TR-FRET, 30 min stimulation) in CHO cells expressing the receptor [4]: 0.58 nM
EC50 of GLP-1 for cAMP production (LANCE TR-FRET, 30 min stimulation) in CHO cells expressing the receptor; series with the double and triple mutants [5]: 0.22 nM
EC50 of GLP-1 for cAMP production (LANCE TR-FRET, 30 min stimulation) in CHO cells expressing the receptor; series with the single site mutants [5]: 0.41 nM
Molecule: GLP-1 7–36 amide (ligand)

rescue of the cAMP response to GIP (LANCE TR-FRET) in CHO cells co-expressing N62,77Q-GIPR-V5 and wild type GLP1R-V5; EC50 of GIP (neither receptor alone gave a response that could be fitted) [6]: 11 nM
B1: N62,77Q-GIPR-V5 (receptor)
chain: RAETGSKGQTAGELYQRWERYRRECQETLAAAEPPSGLACQGSFDMYVCWDYAAPQATARASCPWYLPWHHHVAAGFVLRQCGSDGQWGLWRDHTQCENPEKNEAFLDQRLILERLQVMYTVGYSLSLATLLLALLILSLFRRLHCTRNYIHINLFTSFMLRAAAILSRDRLLPRPGPYLGDQALALWNQALAACRTAQIVTQYCVGANYTWLLVEGVYLHSLLVLVGGSEEGHFRYYLLLGWGAPALFVIPWVIVRYLYENTQCWERNEVKAIWWIIRTPILMTILINFLIFIRILGILLSKLRTRQMRCRDYRLRLARSTLTLVPLLGVHEVVFAPVTEEQARGALRFAKLGFEIFLSSFQGFLVSVLYCFINKEVQSEIRRGWHHCRLRRSLGEEQRQLPERAFRALPSGSGPGEVPTSRGLSSGTLPGPGNEASRELESYC
